B1: GS1869: dsRNA trigger SEQ ID NO 166; gene target General alpha-glucoside permease (nucleic acid)
chain: CGGCCCCATCGAACCATACTTTTTGCAAAAAGATGGCATCGCATAGAATTGAGCAAGCAAGAGATTATCGTAACCTTCCATAATAATACCAGTTGAGATAGCAACACTATAAACAGCAGCTGGCCACCACAATTTTAGAGCTTCGTTGACAGTCATATTCTTTTCAAGCTCTTCCGCACGATGGGCACCCTGAGTGGTATAGTACTGACTCTTTTCCAAAGAAGGAGCTCGGCCAATGTCCTCCTCATGCTTGGCAGTAGTTTCAAGAATGGACTTGTCGATAATAGACATTTTGAGAGTTGAGAAGTCAAAAAAATTTTGAAGTAAAGATCAGACTAAAGGTGAGTTTGGGGATTTAAAAAAAGAATATTAGGGTAAGGTTATGATTGAGTTCACAAGGGAATAGGTTTTCTAGAAAGAGCATGAAGGAAAGACATAAAACCTGAGAGTGATATTTGGATAATTTTGAATTCCATCGTCAACAGCTTCGGGAGACAAGTCTTTATAGAATTCTGAT
B2: GS1870: dsRNA trigger SEQ ID NO 170; gene target Myosin-24 (nucleic acid)
chain: ATTTCTCATTCGCGTAGTTGATACAGAATTGCTCGAATGAGTTTTTTGCAAAGTGTTCGAATCCATAAATATCTAAAACTCCTATAAATGACTTGACACGGCTTAAGACTTCTTCAGCAGCCAACGCATAATTGATATTTTCAACAAGCCAGTCAAAAAGACTTGAATAAACAAATTTAGCGACCGAATCTCGAACAACAATGGCTTGCTGTTGGCTTAAGCTACTAACGACTTTATCTCCCCGGGTAATTAATTGCTTCTTGACTGTCCATCTAGCAAATTCCACCGGATCAATGCCCAAAATTGAAGCAGCAATCTCTAGAGAAGGCTCATTAGGAGTAAGTGAAGATTCATTTCTTGTGGCAGTAATCTTAACATTTCCAAGATGTAGTAATGCTGCAAGTATTTTAAATATTTCGGTCTGCTGATCCTGTTTGACTCCAATTGTTGCTAGGGACTTTTTGAGTGCTTCGAATTCGGCTTTATCATCAACTCCATCTATTGAAGGTGA
B3: GS1864: dsRNA trigger SEQ ID NO 197; gene target NEDD8-conjugating enzyme UBC12 (nucleic acid)
chain: TTCCAAAAAAAAAACTCATCAGGTTTTTAGAACACAATCAAACGTTTGGCCCTTAATAGTACCGCCAGCCATACTATTTCTAACATTTCTCTTGAATATCTCACGATGATTCCGAAGATCTTCGGCGGCTTCTTTATTCAACGGATCCGAAGAATTTGGCTCTAAAAAGAGAAAAATAATTAAAGAATTCCAGTAGCGAACTAGACCAGAGTAGAGCAGGAAGGAGTATTCGATGATACCTAAAAAAAGACACACACGTTATAAAATGGCTCTAAGAATGGTATTGAGGCTAATGTATATTTTTTTCTTTGAAAAAACAAAAAACAAACAAACAAAAAAATTATGGATAATAAGTAATCCTACCACTACACTCTGTAGATTTAGGACCGGTTTCCAGTCCTCACGCAAGATATTGAGACACACGTTTCCATCAAGATCGATATTTGGATGATAAATCTTTTCTATACATTTTACTTTTGGCGCTTCATGAGGGAAGTTTTGAGAGATAGAAAAAGTGAATTGAAAAC
B4: GS1862: dsRNA trigger SEQ ID NO 149; gene target ATP-dependent RNA helicase dbp10 (nucleic acid)
chain: CTGCCTGGAATTTGACAACGCATGTAGGATTTCATTAAGTTGAGTGCTAAATCCCATTTCGAAAAGTCGATCTGCTTCATCAAATACCACATACTTGACCGAGGAAAGGTCTAATGACATTTCAATCTTAAGGTGTAAGAAGCGACCTGGCGTTGCAATAATAATATCAGGGTTGGCTGCCATAAATCTGAATTGATCTTCAAGACTATCTCCCCCTACAAGAAGAACGCATTTGAGATCAGTGCTCCGAGAAAATTCCTTAACGACTTTCAAAGTCTGCAAGGCAAGCTCTCGAGATGGGGATAGAATCAGAGCTCTAGCACCAACTCGAGCACTATGCGCCTTCAACATTTGAATCATCGGAATAACAAAAGCCGCTGTCTTTCCTGAACCGGTTCTAGCCATTCCCACGACATCTTGATGATCAAGAATCAGAGGTATTGTTTTTCTCTGGATTGGAGTCGGAACATTGAAGCCTTTTCTTTTGATGGCTCTCAAAAGATGAGCATCCAAACCCATAGATTGAAAA
B5: GS1865: dsRNA trigger SEQ ID NO 183; gene target Protein transport protein SEC31 (nucleic acid)
chain: TTGAGCTTCTGGGTGTTTTGTAAGAGAGTTTGTGTTAAATAGTGTCTGTATAGAAATTTTGCCATCAAAAGACGCAGTTGCAGAAAGTGCTGGATTATGAGGATGAAATCGAGTCTGAAAGGTCCAGTTTGTAGCTTCAGGAAATTCTCCCAGGAGTTCTCCAAGCTGTGGGTTCCATAAGATAGTTCTATTATCTTTGCCACATGATAACAGCAAATTGCTGTCTTGTTGACACCATGAGATTGATAAAATTCCCTGATTATGGCCTTGTAATGTACATTCTGGTGCATTGGAATTTCGTAAATCCCAAAGAAGAATAACTGGTTTTGTATCATCAGGTGTTGCTGTTAGTAGCTTCGTTGAATTTTCTGGATCCCAAGCAATAGCTCCAACAGCTTTACGATTGTTATTCAAAGTCAATGACGCTTTTTTGGTTTTTAAGTCCCACACTGTAACAAATCCTCCAGTTCCACCAGTAGCCAAAATATGAGGAACTTTCCTATTCCAGGCAACACATTCAAGGTCAT
B6: GS1866: dsRNA trigger SEQ ID NO 163; gene target Proline-rich protein LAS17 (nucleic acid)
chain: ATATCGGGAGGGGTGGCGGTAATGAGGAAGGCTCTTGAGCTGCTATGAGAGATGGTGATGATTGTGCCTGATGTACTGGAAGTAATGGTAGTGATGATGTTTGAGTAACACGAAGAGATGTTGGCGATGGAGCTGGAGAAACTGAGGGATTTTTTGGTATTTGAGAGACTGTGAAAGATTGAGGTTGTGGACTATTTGGCTCTCTATTCTTTTCACAGTCTCGAGTAGTTATTTGAACACTAGGACGTAACGAGGAAGGAGGCAAAGGAGGTGTTGCTGATGCAGATACTATCGGAATTTTTGGAGGTAATTGGGGAGGAGGGAGATGCTCACTTTTAGCAAGAGGGGTTGTGACTTGGGAAGAACTTGTATGAAAAACACGAGTTAAAGGTGGTATTGTTTCACGTGGTGGTATTAAAGGCCCCGCACGATGTGAAATAAAAGATCCAGTGTTTTTCTCACCTGAAAAAGGTGGTGGTACGTTGAATTTAGAGACGCCCGATTCCGAATTTTCTTTAGAATTTTT
B7: GS1867: dsRNA trigger SEQ ID NO 126; gene target hypothetical_protein_BGT96224_Ac30495 (nucleic acid)
chain: AAACCGAAATCTACGACAGGTAAAGCATCACGCAATATAACGGCGAAAGCCCACCTGCTATCACCTACTCTCAACGTCCTACGAAAAGATGTTGTTTTCGAGAAAGCGCTCAGTGACATGCATGGCTCTTCCGATAAATACCTAGATAAAGACTCTAGCATGGAAATTAATATAGGTGATGATATCAGCGAGGGGTCGAATGCGGATCCCTTTGCAGAAGAACTCCCCACGCCATCAATAGCGCCAGATACTGCGGTAGCTACCACACTTAACTTAGCACATGGACAGGACGTGAAAGATAATCACAATGCGGCTAGTCTCATGGATGCAATCAAAGGCCTACTAGACTTGACAAATGATTACTTAAAAAATCTTGAAGCACATCACCCAGGAGTTGGGGCAGACTTCTTAGCGCTTCTAGCGGACGGAGCCTCCCGAGCTATGCGCGGAGAGCGAGTTTATTCTAATACATCAAAAGTATGCGAAGGTAGAAAACAAGGAACACAGGCAACATGGACTGA
B8: GS1868: dsRNA trigger SEQ ID NO 177; gene target Glycine-rich RNA-binding protein 4, mitochondrial (nucleic acid)
chain: TGCCCCATGAGAGACCGCCAATAAAGAGTTTAGGCATTCTGTATGTTAATTTTTATCCTCGCGAACCTGGTATAAAGTCTTAATCTCCGCGTGCATCCTTGAATAAAATGTGACAACGCCATCGAGTTTGAGAGGGAGAGAGAAAGTGGATACGGAACAGTTAAAGAAAAGTACATCGGGATATAACAAAACCTCCGTGTAGCATACAAATGAGGGGACGATGAATATATTTGTTTGCTTGGTGAACAGGCCGGGGAGGATTGGGATGAAGTAATGTTAGTACACACTGTCAGAGAACTAACGAACTTCTAGTGAGTTGCTCAAGAAGAGCAAAGTGCTGCGTTTATAGGGAGACCTGATGAACTTTATTAATTCGGTTTGGAGGAGCAATTTTTATAATGGACTGGAGTAACCGATCAGTCAATTTCGTGATAGAACTATTCTTCCGCAAATTGAGACGCAAAAGCTCTCTGATTGTGATGACAAGAGTTTTGCGGGTCTCAATAAAGGAATTGATGTTT
B9: GS1863: dsRNA trigger SEQ ID NO 167; gene target Chromatin remodeling factor mit1 (nucleic acid)
chain: TTGAGCCAAAATAAGAAACGACACGTAGCTTTGGAGCCCATTTTTTAATTTCTCGACGCCAATTAAGGCAAGTCGAATTAGGAGCTACAACTAAAAAGGGCCAACATTTCGAGTGATTTTTGACAATTGCTACGATAAAGGCAATAATTTGTATTGTCTTTCCTAAGCCCATCTCATCTGCTAGAATAACATTTTTCTTTTGATGGAAGTTATAAAGTAGCCAATTTAGACCTTCCATTTGATATTGCATCATCTTTCCTCCTGTGAGTTGTAGAGGTTGCTCTTTCATCTCAACTCTTCTTGAAAAATTTAATTTTCGGAACATCTGTAAGCGATGGTCCATAGCTGAAGTTGAGGATTGCCTAAAGTATTTTCCATCAATAAATTCATTATAGGCGGTAATAAAGCTTTGATATCTTTCGATATTCTCAATTTTTGGGGGCTCCATCCATACTGCTTCATCATAAGCAAGACCTTTGAATTTTACAAAGACTTCAGTGATCATATTAGCAGCAGCCTTGTCTATCTT

tested on: E. necator; experiment: Leaf disc assay, dry inoculum (settling tower), decrease in disease severity / hyphal growth (Example 2); settings: decrease in disease severity (hyphal growth) relative to untreated control; time point 1 (untreated control hyphal growth ≥50%); value ± SE

| Molecule | % decrease =/− SE TP1 [%] |
| --- | --- |
| B1 | 21 ± 7 |
| B2 | 11 ± 5 |
| B3 | 5 ± 6 |
| B4 | 26 ± 4 |
| B5 | 5 ± 6 |
| B6 | 8 ± 5 |
| B7 | 7 ± 4 |
| B8 | 1 ± 6 |
| B9 | 6 ± 5 |

same assay, conditions: decrease in disease severity (hyphal growth) relative to untreated control; time point 2; value ± SE

| Molecule | % decrease =/− SE TP2 [%] |
| --- | --- |
| B1 | 17 ± 7 |
| B2 | 13 ± 8 |
| B3 | 3 ± 9 |
| B4 | 29 ± 5 |
| B5 | 3 ± 10 |
| B6 | 13 ± 7 |
